From the supplement of paper PMC10724198
± gives the standard deviation of the averaged measurements.

These sequences were tested on Saccharomyces cerevisiae (assay: protein stability index of tFT-peptide fusion (C-terminal peptide) (PSI (0-1 scale)); higher = more stable (slower turnover)). Conditions: genetic background: wild type; temperature: 30 C.
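Also: PSI is a weighted mean of sequencing reads over stability bins, variants kept only with over 10 reads, mCherry proximal and sfGFP distal, peptide attached via GGGS linker.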

Sequence	protein stability index
ISSTGYQARHRG	0.688 ± 0.03
ISVDNTKFLFRS	0.687 ± 0.023
ISYIGCCKIVLT	0.553 ± 0.0086
ITRLSPPSSVRL	0.7 ± 0.039
ITTLGSVSRDSR	0.722 ± 0.062
IVGAGVFEERWG	0.77 ± 0.023
IVGLGLENGKEI	0.704 ± 0.042
IVLAGVCGGVVG	0.733 ± 0.29
IVLLSLSCRSPG	0.594 ± 0.014
IVQETKYFVRRS	0.685 ± 0.082
IVRTMLKLFVDV	0.5827 ± 0.0037
IVSGVSVHLGVG	0.6115 ± 0.0029
IVVRPAGGGTQS	0.663 ± 0.019
IWGKREDKNVYR	0.71 ± 0.025
IWPGASLALLTS	0.606 ± 0.011
IWRPGVAQSGLA	0.7205 ± 0.0055
IYAQFCSLYDHP	0.702 ± 0.013
IYERTEENKRVN	0.591 ± 0.0088
IYSFFHHRFVTV	0.546 ± 0.0081
KAASSLSRPAHL	0.734 ± 0.074
KAIVKKCTDSED	0.679 ± 0.011
KALNLAAAILYG	0.638 ± 0.015
KALQRKCRKRHK	0.673 ± 0.039

Sequence	protein stability index
KCKGTCESRRGI	0.833 ± 0.034
KCPRPDATLYQS	0.721 ± 0.042
KDKKKENKNNGE	0.6787 ± 0.0036
KDKSQKKERQKT	0.664 ± 0.029
KDQRAKRRRREE	0.679 ± 0.08
KDRRNKNKRQEY	0.633 ± 0.012
KECGICGAVVGL	0.63 ± 0.092
KEENKKKKKKRI	0.755 ± 0.081
KEGRKKKRQINT	0.803 ± 0.076
KEHKSQRSRVWR	0.719 ± 0.011
KEKKAKKSRKKR	0.665 ± 0.084
KEKKNNRQRKER	0.642 ± 0.016
KELPAGRQSEPD	0.636 ± 0.034
KERKHKRTRQQT	0.666 ± 0.021
KFNFVRMSSLRL	0.692 ± 0.16
KFRLAGSVARSG	0.684 ± 0.013
KFSVVMFLDGSW	0.697 ± 0.084
KGENKRRVRKKN	0.574 ± 0.014
KGIDTYVLQRNE	0.715 ± 0.0095
KGKRKETKKTKG	0.667 ± 0.017
KGLKQLMQIRME	0.605 ± 0.064
KGQGAYEGVGKE	0.663 ± 0.019
KGRKVVLETQLQ	0.7 ± 0.018

Sequence	protein stability index
KGRLVGWDRNRI	0.75 ± 0.07
KGRTEKRGEKRT	0.717 ± 0.017
KHEKGEKNKIEK	0.664 ± 0.055
KHIIPSAYTPEG	0.661 ± 0.023
KHKRKGSERKQG	0.608 ± 0.0066
KHQKNRLRDLGS	0.708 ± 0.03
KHVRIEVITERN	0.635 ± 0.056
KIGNQLQELRRI	0.696 ± 0.017
KIHINTMFQIKK	0.536 ± 0.051
KIIGVRLKFDRS	0.761 ± 0.14
KIKEIIKIKKKR	0.678 ± 0.009
KIKKKKYTKYTK	0.553 ± 0.052
KIKNKKNKCKKK	0.751 ± 0.14
KIRDECFQPVNR	0.674 ± 0.059
KIYLKDKKKSKK	0.668 ± 0.057
KKAKRKHLLGRA	0.66 ± 0.017
KKDTTRGENYKP	0.767 ± 0.016
KKEGKTKSIRKK	0.726 ± 0.013
KKEKRQQEKIIK	0.671 ± 0.04
KKEQKKKNKNDR	0.669 ± 0.025
KKGREKKQQKER	0.717 ± 0.015
KKHKKEDNKEKK	0.708 ± 0.051
KKIKKKKQTKRK	0.662 ± 0.039

Sequence	protein stability index
KKIKKKQTTLKR	0.665 ± 0.081
KKILNKEKSKMA	0.7181 ± 0.0049
KKIRSMRREGQR	0.714 ± 0.08
KKKEHQKIKNER	0.675 ± 0.032
KKKHIRTEKDNK	0.704 ± 0.014
KKKIINEKKKKD	0.70019 ± 0.00067
KKKKAKKIKKQK	0.675 ± 0.059
KKKKEEKKKSKK	0.644 ± 0.041
KKKKIKIKKKKI	0.763 ± 0.043
KKKKIKKKEKNK	0.716 ± 0.079
KKKKIKKKKINI	0.597 ± 0.0067
KKKKKKKETKKR	0.661 ± 0.047
KKKKKKKKKKKR	0.633 ± 0.009
KKKKKKKKKKPK	0.611 ± 0.022
KKKKKKKKQEQN	0.63076 ± 3e-05
KKKKKKKKRNRK	0.666 ± 0.018
KKKKKKKSTKRN	0.713 ± 0.037
KKKKKKNTHNTK	0.646 ± 0.07
KKKKKKRYRKKI	0.605 ± 0.024
KKKKKNNKRQKQ	0.593 ± 0.089
KKKKLKQKKNKQ	0.655 ± 0.008
KKKKNNKKKQRT	0.731 ± 0.027
KKKKQIKKTKKK	0.701 ± 0.047

Sequence	protein stability index
KKKKQKKRETTK	0.636 ± 0.012
KKKKQKNNRKKP	0.574 ± 0.059
KKKKRKGKRQPR	0.671 ± 0.041
KKKKRKKKKINI	0.611 ± 0.038
KKKKRQNIQNKK	0.692 ± 0.054
KKKLEIKIEKRE	0.644 ± 0.042
KKKNKKEDKRKK	0.6942 ± 0.0031
KKKNKKKQKEEK	0.693 ± 0.012
KKKNKKKRKGRK	0.684 ± 0.037
KKKNKKNKKKAE	0.6915 ± 0.0047
KKKQNVKSNEVG	0.651 ± 0.096
KKKRKEEIKKKK	0.742 ± 0.012
KKKRKKKQKIRK	0.731 ± 0.08
KKKTIKKTIKNQ	0.702 ± 0.031
KKKTKEKTRKKK	0.702 ± 0.016
KKKTKRKQKIET	0.727 ± 0.022
KKNKKKKIKMNK	0.713 ± 0.038
KKNKKKRRAQKE	0.669 ± 0.044
KKNKKPKKQNNK	0.681 ± 0.063
KKNKNLTYKRMI	0.716 ± 0.029
KKNKRKLKKKKK	0.72 ± 0.087
KKNLHEQIGEAI	0.687 ± 0.051
KKNTKKKQVNQE	0.747 ± 0.05

Sequence	protein stability index
KKPVNINNKLSA	0.647 ± 0.017
KKQKKKPQNKKK	0.954 ± 0.066
KKQKKWQSNTIR	0.696 ± 0.034
KKQKRRKGEREK	0.637 ± 0.0023
KKQQKKKNKNDR	0.651 ± 0.017
KKRKVKKKKPNG	0.581 ± 0.033
KKRYYNKKINEK	0.699 ± 0.046
KKSDTKKKGQNK	0.673 ± 0.048
KKSGTRDKNIQH	0.676 ± 0.046
KKSKKHEKKKNK	0.711 ± 0.065
KKTGITTNIKRW	0.741 ± 0.23
KKTITNNCPSYD	0.6638 ± 0.0066
KKTKKKKNKKQE	0.716 ± 0.081
KKTTKRKKEKQK	0.633 ± 0.07
KKVDLEDQRKER	0.745 ± 0.008
KLILGGSRGIMD	0.646 ± 0.014
KLNDTLKDRQNK	0.67 ± 0.037
KLNVRATPPPTI	0.7 ± 0.055
KLQKKTRQKKKK	0.653 ± 0.035
KLRETQIHQGKT	0.698 ± 0.021
KLVGSLLSPDSE	0.724 ± 0.015
KMGKIQKVKGIK	0.731 ± 0.012
KMTSLSRVDIEE	0.668 ± 0.087

Sequence	protein stability index
KMYILKGKIRKI	0.612 ± 0.057
KNCARIKERKDV	0.627 ± 0.03
KNEGYHNVTMNL	0.707 ± 0.017
KNKGKHKGGKYR	0.721 ± 0.059
KNKIKITKRKRK	0.734 ± 0.0099
KNKKKNQIENRT	0.692 ± 0.0014
KNQKTTKKKKKI	0.543 ± 0.019
KNSKKKKLKIER	0.804 ± 0.27
KNSLIKTKESRK	0.6947 ± 0.0021
KNVILKKNKNWL	0.6746 ± 0.0063
KPLPSHYPGRTP	0.658 ± 0.016
KPRSRMHRIVRI	0.722 ± 0.027
KPRTLRPDQNAT	0.689 ± 0.0087
KQDIETDKKEEG	0.666 ± 0.13
KQFGIHSRVFLM	0.547 ± 0.021
KQKNSNKKTQRI	0.712 ± 0.021
KQKTSRGTGQSL	0.683 ± 0.1
KQNRKEKVQRNR	0.709 ± 0.054
KQQTPVQNKDLR	0.71399 ± 0.0006
KQSNRYPCIHRS	0.705 ± 0.048
KRCTFCGGGWVM	0.7276 ± 0.00082
KREGEGLDWGEV	0.7089 ± 0.0014
